# Test results reported in article doi:10.1101/854497 (bioRxiv, 2020).
# “And” between values parts separate entries of the source, which are not always exact repeats. Equal values may be shown once.
# B1: StrepII-Pex14p(M51L) (natural protein, yeast, UniProt P53112 1-341, looked up)
# chain: MSDVVSKDRKALFDSAVSFLKDESIKDAPLLKKIEFLKSKGLTEKEIEIALKEPKKDGIVGDEVSKKIGSTENRASQDMYLYEAMPPTLPHRDWKDYFVMATATAGLLYGAYEVTRRYVIPNILPEAKSKLEGDKKEIDDQFSKIDTVLNAIEAEQAEFRKKESETLKELSDTIAELKQALVQTTRSREKIEDEFRIVKLEVVNMQNTIDKFVSDNDGMQELNNIQKEMESLKSLMNNRMESGNAQDNRLFSISPNGIPGIDTIPSASEILAKMGMQEESDKEKENGSDANKDDNAVPAWKKAREQTIDSNASIPEWQKNTAANEISVPDWQNGQVEDSIP
# B2: Pex14p_(119-341) (domain or fragment, yeast, UniProt P53112 119-341, looked up)
# chain: VIPNILPEAKSKLEGDKKEIDDQFSKIDTVLNAIEAEQAEFRKKESETLKELSDTIAELKQALVQTTRSREKIEDEFRIVKLEVVNMQNTIDKFVSDNDGMQELNNIQKEMESLKSLMNNRMESGNAQDNRLFSISPNGIPGIDTIPSASEILAKMGMQEESDKEKENGSDANKDDNAVPAWKKAREQTIDSNASIPEWQKNTAANEISVPDWQNGQVEDSIP
# B3: His6-Pex17p (natural protein, yeast, UniProt P40155 1-199, looked up)
# chain: MTSINSFPRNIDWPSNIGIKKIEGTNPTVNAIKGLLYNGGSIYAFLYFVIAMFVEPTLQKQYQQRNDFSLFVLLRLRRIIAQLQKRLVMTPVSSLGFNEQNNFVERSTQTSDDNIIREDNSHWAEMIYQLQNMKQELQYFNRSSGQPSESIDDFVFQIKMVTDQVELTDRSRAFSNKSRNIIQGIREIKGWFVNGQVPR
# Key:
# His6-Pex17p = target: B3; assay: native MS
# native MS + SEC-MALS = target: the molecule itself; assay: native MS + SEC-MALS
# cross-linking = target: the molecule itself; assay: cross-linking
# StrepII-Pex14p(M51L) = target: B1; assay: cryo-EM structure
binder,measurement,setting,value
B1,stoichiometry N,His6-Pex17p,3 Pex14p:Pex17p and 6 Pex14p:Pex17p and 4.5 Pex14p:Pex17p
same,stoichiometry N,native MS + SEC-MALS,3 copies
B2,stoichiometry N,cross-linking,3
B3,binding result,StrepII-Pex14p(M51L),binds
